According to patent US20130059772A1, “Use of Repeat Sequence Protein Polymers in Personal Care Compositions” (DANISCO US INC., priority 2003, published 2013):
Positions count from the first letter of the chain named.

B1: SELP47E: SELP variant, 13 subunits, lysine substituted by glutamic acid (protein)
chain: MDPVVLQRRDWENPGVTQLNRLAAHPPFASDPMGAGSGAGAGSGVGVPGVGVPGVGVPGVGVPGEGVPGVGVPGVGEPGVGVPGAGAGSGAGAGSGAGAGSGAGAGSGVGVPGVGVPGVGVPGVGVPGEGVPGVGVPGVGEPGVGVPGAGAGSGAGAGSGAGAGSGAGAGSGVGVPGVGVPGVGVPGVGVPGEGVPGVGVPGVGEPGVGVPGAGAGSGAGAGSGAGAGSGAGAGSGVGVPGVGVPGVGVPGVGVPGEGVPGVGVPGVGEPGVGVPGAGAGSGAGAGSGAGAGSGAGAGSGVGVPGVGVPGVGVPGVGVPGEGVPGVGVPGVGEPGVGVPGAGAGSGAGAGSGAGAGSGAGAGSGVGVPGVGVPGVGVPGVGVPGEGVPGVGVPGVGEPGVGVPGAGAGSGAGAGSGAGAGSGAGAGSGVGVPGVGVPGVGVPGVGVPGEGVPGVGVPGVGEPGVGVPGAGAGSGAGAGSGAGAGSGAGAGSGVGVPGVGVPGVGVPGVGVPGEGVPGVGVPGVGEPGVGVPGAGAGSGAGAGSGAGAGSGAGAGSGVGVPGVGVPGVGVPGVGVPGEGVPGVGVPGVGEPGVGVPGAGAGSGAGAGSGAGAGSGAGAGSGVGVPGVGVPGVGVPGVGVPGEGVPGVGVPGVGEPGVGVPGAGAGSGAGAGSGAGAGSGAGAGSGVGVPGVGVPGVGVPGVGVPGEGVPGVGVPGVGEPGVGVPGAGAGSGAGAGSGAGAGSGAGAGSGVGVPGVGVPGVGVPGVGVPGEGVPGVGVPGVGEPGVGVPGAGAGSGAGAGSGAGAGSGAGAGSGVGVPGVGVPGVGVPGVGVPGEGVPGVGVPGVGEPGVGVPGAGAGSGAGAGSGAGAMDPGRYQDLRSHHHHHH
modifications: SELP 47E-13
notes: SELP variant, 13 subunits, lysine substituted by glutamic acid
B2: SELP67K: SELP variant, 13 subunits (SEQ ID NO:30) (protein)
chain: MDPVVLQRRDWENPGVTQLNRLAAHPPFASDPMGVGVPGVGVPGVGVPGVGVPGKGVPGVGVPGVGVPGVGVPGAGAGSGAGAGSGAGAGSGAGAGSGAGAGSGAGAGSGVGVPGVGVPGVGVPGVGVPGKGVPGVGVPGVGVPGVGVPGAGAGSGAGAGSGAGAGSGAGAGSGAGAGSGAGAGSGVGVPGVGVPGVGVPGVGVPGKGVPGVGVPGVGVPGVGVPGAGAGSGAGAGSGAGAGSGAGAGSGAGAGSGAGAGSGVGVPGVGVPGVGVPGVGVPGKGVPGVGVPGVGVPGVGVPGAGAGSGAGAGSGAGAGSGAGAGSGAGAGSGAGAGSGVGVPGVGVPGVGVPGVGVPGKGVPGVGVPGVGVPGVGVPGAGAGSGAGAGSGAGAGSGAGAGSGAGAGSGAGAGSGVGVPGVGVPGVGVPGVGVPGKGVPGVGVPGVGVPGVGVPGAGAGSGAGAGSGAGAGSGAGAGSGAGAGSGAGAGSGVGVPGVGVPGVGVPGVGVPGKGVPGVGVPGVGVPGVGVPGAGAGSGAGAGSGAGAGSGAGAGSGAGAGSGAGAGSGVGVPGVGVPGVGVPGVGVPGKGVPGVGVPGVGVPGVGVPGAGAGSGAGAGSGAGAGSGAGAGSGAGAGSGAGAGSGVGVPGVGVPGVGVPGVGVPGKGVPGVGVPGVGVPGVGVPGAGAGSGAGAGSGAGAGSGAGAGSGAGAGSGAGAGSGVGVPGVGVPGVGVPGVGVPGKGVPGVGVPGVGVPGVGVPGAGAGSGAGAGSGAGAGSGAGAGSGAGAGSGAGAGSGVGVPGVGVPGVGVPGVGVPGKGVPGVGVPGVGVPGVGVPGAGAGSGAGAGSGAGAGSGAGAGSGAGAGSGAGAGSGVGVPGVGVPGVGVPGVGVPGKGVPGVGVPGVGVPGVGVPGAGAGSGAGAGSGAGAGSGAGAGSGAGAGSGAGAGSGVGVPGVGVPGVGVPGVGVPGKGVPGVGVPGVGVPGVGVPGAGAGSGAGAGSGAGAGSGAGAGSGAGAGSGAGAGSMDPGRYQDLRSHHHHHH
modifications: SELP 67K
B3: SELP47E-3: SELP variant, 3 subunits, lysine substituted by glutamic acid (SEQ ID NO:28) (protein)
chain: MDPVVLQRRDWENPGVTQLNRLAAHPPFASDPMGAGAGSGAGAGSGVGVPGVGVPGVGVPGVGVPGEGVPGVGVPGVGVPGVGVPGAGAGSGAGAGSGAGAGSGAGAGSGVGVPGVGVPGVGVPGVGVPGEGVPGVGVPGVGVPGVGVPGAGAGSGAGAGSGAGAGSGAGAGSGVGVPGVGVPGVGVPGVGVPGEGVPGVGVPGVGVPGVGVPGAGAGSGAGAGSGAGAMDPGRYQDLRSHHHHHH
modifications: SELP 47E-3
B4: SELP47R-3: SELP variant, 3 subunits, lysine substituted by arginine (SEQ ID NO:26) (protein)
chain: B3 chain with D2P, E67R, E131R, E195R
modifications: SELP 47R-3
B5: SELP47K-3: SELP variant, 3 subunits, no lysine substitution (SEQ ID NO:27) (protein)
chain: MDPVVLQRRDWENPGVTQLNRLAAHPPFASDPMGAGSGAGAGSGVGVPGVGVPGVGVPGVGVPGKGVPGVGVPGVGVPGVGVPGAGAGSGAGAGSGAGAGSGAGAGSGVGVPGVGVPGVGVPGVGVPGKGVPGVGVPGVGVPGVGVPGAGAGSGAGAGSGAGAGSGAGAGSGVGVPGVGVPGVGVPGVGVPGKGVPGVGVPGVGVPGVGVPGAGAGSGAGAGSGAGAMDPGRYQDLRSHHHHHH
modifications: SELP-47K-3
B6: SELP58: SELP variant, 13 subunits (SEQ ID NO:31) (protein)
chain: MDPVVLQRRDWENPGVTQLNRLAAHPPFASDPMGVGVPGVGVPGVGVPGVGVPGVGVPGVGVPGVGVPGVGVPGAGAGSGAGAGSGAGAGSGAGAGSGAGAGSGVGVPGVGVPGVGVPGVGVPGVGVPGVGVPGVGVPGVGVPGAGAGSGAGAGSGAGAGSGAGAGSGAGAGSGVGVPGVGVPGVGVPGVGVPGVGVPGVGVPGVGVPGVGVPGAGAGSGAGAGSGAGAGSGAGAGSGAGAGSGVGVPGVGVPGVGVPGVGVPGVGVPGVGVPGVGVPGVGVPGAGAGSGAGAGSGAGAGSGAGAGSGAGAGSGVGVPGVGVPGVGVPGVGVPGVGVPGVGVPGVGVPGVGVPGAGAGSGAGAGSGAGAGSGAGAGSGAGAGSGVGVPGVGVPGVGVPGVGVPGVGVPGVGVPGVGVPGVGVPGAGAGSGAGAGSGAGAGSGAGAGSGAGAGSGVGVPGVGVPGVGVPGVGVPGVGVPGVGVPGVGVPGVGVPGAGAGSGAGAGSGAGAGSGAGAGSGAGAGSGVGVPGVGVPGVGVPGVGVPGVGVPGVGVPGVGVPGVGVPGAGAGSGAGAGSGAGAGSGAGAGSGAGAGSGVGVPGVGVPGVGVPGVGVPGVGVPGVGVPGVGVPGVGVPGAGAGSGAGAGSGAGAGSGAGAGSGAGAGSGVGVPGVGVPGVGVPGVGVPGVGVPGVGVPGVGVPGVGVPGAGAGSGAGAGSGAGAGSGAGAGSGAGAGSGVGVPGVGVPGVGVPGVGVPGVGVPGVGVPGVGVPGVGVPGAGAGSGAGAGSGAGAGSGAGAGSGAGAGSGVGVPGVGVPGVGVPGVGVPGVGVPGVGVPGVGVPGVGVPGAGAGSGAGAGSGAGAGSGAGAGSGAGAGSGVGVPGVGVPGVGVPGVGVPGVGVPGVGVPGVGVPGVGVPGAGAGSGAGAGSGAGAGSGAGAGSGAGAGSMDPGRYQLSAGRYHYQLVWCQK
modifications: SELP 58

Assay: Isoelectric point determination (IEF gel)
Type: physicochemical
Settings: SELP variants, Table 2
Protocol: In this Example, experiments performed to determine the isoelectric point and cloud point of SELP47K (Example 1) are described. The isoelectric point of SELP47K was determined by electrophoresing 5 mg/ml SELP47K solution using Isoelectric Focusing Electrophoresis (IEF) gel and Novex electrophoresis apparatus along with protein standards markers.

Compared with B1, B2 is higher in “Isoelectric Point” value: 4.16 for the first, 10.53 for the second.

Compared with B3, B4 is higher in “Isoelectric Point” value: 5.9 for the first, 10.5 for the second.

First: B5
Second: B6
The “Isoelectric Point” value of the first is higher: 9.52 for the first, 6.7 for the second.
